Measurements taken from US20200247855A1, “THERAPY AND DIAGNOSTICS” (OXFORD UNIVERSITY INNOVATION LIMITED, priority 2017, published 2020).
Positions count from the first letter of the chain named.

How the values were obtained:
CCL17_HUMAN = target: T1, CCL17_HUMAN (Homo sapiens, UniProt Q92583); experiment: Yeast surface display (YSD) FACS binding
T1 sequence (Q92583 24-94): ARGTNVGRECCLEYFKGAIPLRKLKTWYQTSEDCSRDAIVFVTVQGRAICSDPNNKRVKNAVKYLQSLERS
How it was run: (§1)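 Yeast clones displaying tick peptides were re-tested by FACS with labelled chemokine. Binding = % of peptide-expressing yeast above a background threshold set with streptavidin-Alexa647 alone; the mean percent shift was used where several clones were isolated. Confirmed binding ("YES") required >3-fold over background mean fluorescence intensity.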

CCL11_HUMAN [1] = target: T2, CCL11_HUMAN (Homo sapiens, UniProt P51671); experiment: Yeast surface display (YSD) FACS binding
How it was run: as §1

CCL18_HUMAN [2] = target: T3, CCL18_HUMAN (Homo sapiens, UniProt P55774); experiment: Yeast surface display (YSD) FACS binding
T3 sequence (P55774 21-89): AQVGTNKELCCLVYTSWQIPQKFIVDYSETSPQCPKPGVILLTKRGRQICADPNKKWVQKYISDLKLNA
How it was run: as §1

CCL25_HUMAN = target: T4, CCL25_HUMAN (Homo sapiens, UniProt O15444); experiment: Yeast surface display (YSD) FACS binding
T4 sequence (O15444 24-150): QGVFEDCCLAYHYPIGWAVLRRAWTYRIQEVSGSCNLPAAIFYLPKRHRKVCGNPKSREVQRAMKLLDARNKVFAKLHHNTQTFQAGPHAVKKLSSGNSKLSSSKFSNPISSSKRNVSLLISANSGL
How it was run: as §1

CCL5_HUMAN [3] = target: T5, CCL5_HUMAN (Homo sapiens, UniProt P13501); experiment: Yeast surface display (YSD) FACS binding
T5 sequence (P13501 24-91): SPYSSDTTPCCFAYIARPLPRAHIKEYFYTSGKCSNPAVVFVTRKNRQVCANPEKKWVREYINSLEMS
How it was run: as §1

CCL3_HUMAN [4] = target: T6, CCL3_HUMAN (Homo sapiens, UniProt P10147); experiment: Yeast surface display (YSD) FACS binding
T6 sequence (P10147 24-92): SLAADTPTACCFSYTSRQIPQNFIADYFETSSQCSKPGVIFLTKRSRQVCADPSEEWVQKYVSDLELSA
How it was run: as §1

CCL8_HUMAN [5] = target: T7, CCL8_HUMAN (Homo sapiens, UniProt P80075); experiment: Yeast surface display (YSD) FACS binding
T7 sequence (P80075 24-99): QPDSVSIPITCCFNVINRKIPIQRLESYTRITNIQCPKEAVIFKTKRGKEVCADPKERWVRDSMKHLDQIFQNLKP
How it was run: as §1

CCL20_HUMAN = CCL20_HUMAN (Homo sapiens, UniProt P78556); experiment: Yeast surface display (YSD) FACS binding
How it was run: as §1

CXCL8_HUMAN = target: T8, CXCL8_HUMAN (Homo sapiens, UniProt P10145); experiment: Yeast surface display (YSD) FACS binding; parameters: label (chemical); conditions: yeast surface display
T8 sequence (P10145 21-99): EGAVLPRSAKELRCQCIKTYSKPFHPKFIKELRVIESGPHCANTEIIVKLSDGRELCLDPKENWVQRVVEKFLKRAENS
How it was run: (§2)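 Yeast clones displaying tick peptides were re-tested by FACS with labelled chemokine detected by streptavidin-Alexa conjugate. Binding was scored as % of peptide-expressing cells above a background set with streptavidin-Alexa alone, averaged over independent clones. In the screen tables, >3-fold over background mean fluorescence intensity was scored as binding.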

CXCL12_HUMAN = CXCL12_HUMAN (Homo sapiens, UniProt P48061); experiment: Yeast surface display (YSD) FACS binding; conditions: yeast surface display
How it was run: as §2

CCL2_HUMAN = CCL2_HUMAN (Homo sapiens, UniProt P13500); experiment: Biolayer interferometry (BLI) binding
How it was run: (§3)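 His-tagged purified tick CKBPs were loaded on Ni-NTA sensors and screened against chemokine at 300 nM. Chemokines that bound in this screen were retested at several concentrations. Association, equilibrium and dissociation curves were fitted to give Kd in molar units.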

CCL4L1_HUMAN = target: T9, CCL4L1_HUMAN (Homo sapiens, UniProt Q8NHW4); experiment: Biolayer interferometry (BLI) binding
T9 sequence (Q8NHW4 24-92): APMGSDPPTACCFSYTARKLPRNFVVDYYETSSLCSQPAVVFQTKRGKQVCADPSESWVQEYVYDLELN
How it was run: as §3

CCL11_HUMAN [6] = target: T2, CCL11_HUMAN; experiment: Biolayer interferometry (BLI) binding
How it was run: as §3

CCL18_HUMAN [7] = target: T3, CCL18_HUMAN; experiment: Biolayer interferometry (BLI) binding
How it was run: as §3

CCL7_HUMAN = CCL7_HUMAN (Homo sapiens, UniProt P80098); experiment: Biolayer interferometry (BLI) binding
How it was run: as §3

CCL16_HUMAN = target: T10, CCL16_HUMAN (Homo sapiens, UniProt O15467); experiment: Biolayer interferometry (BLI) binding
T10 sequence (O15467 24-120): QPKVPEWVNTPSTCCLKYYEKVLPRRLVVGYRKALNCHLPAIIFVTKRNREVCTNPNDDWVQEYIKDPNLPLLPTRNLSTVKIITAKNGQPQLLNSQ
How it was run: as §3

CCL3_HUMAN [8] = target: T6, CCL3_HUMAN; experiment: Biolayer interferometry (BLI) binding
How it was run: as §3

CCL13_HUMAN = CCL13_HUMAN (Homo sapiens, UniProt Q99616); experiment: Biolayer interferometry (BLI) binding
How it was run: as §3

CCL8_HUMAN [9] = target: T7, CCL8_HUMAN; experiment: Biolayer interferometry (BLI) binding; conditions: read-out: Kd, CCL8_HUMAN
How it was run: as §3

CCL1_HUMAN = target: T11, CCL1_HUMAN (Homo sapiens, UniProt P22362); experiment: Biolayer interferometry (BLI) binding
T11 sequence (P22362 24-96): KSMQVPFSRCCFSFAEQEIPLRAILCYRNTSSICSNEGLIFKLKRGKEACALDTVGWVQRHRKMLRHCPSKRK
How it was run: as §3

CCL4_HUMAN = target: T12, CCL4_HUMAN (Homo sapiens, UniProt P13236); experiment: Biolayer interferometry (BLI) binding
T12 sequence (P13236 24-92): T9 sequence (Q8NHW4 24-92) with G47S
How it was run: as §3

CCL3L1_HUMAN = CCL3L1_HUMAN (Homo sapiens, UniProt P16619); experiment: Biolayer interferometry (BLI) binding
How it was run: as §3

CCL5_HUMAN [10] = target: T5, CCL5_HUMAN; experiment: Biolayer interferometry (BLI) binding
How it was run: as §3

CCL24_HUMAN = target: T13, CCL24_HUMAN (Homo sapiens, UniProt O00175); experiment: Biolayer interferometry (BLI) binding
T13 sequence (O00175 27-119): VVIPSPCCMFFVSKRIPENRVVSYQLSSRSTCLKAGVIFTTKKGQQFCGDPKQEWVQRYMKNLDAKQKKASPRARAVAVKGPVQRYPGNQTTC
How it was run: as §3

T2 sequence (P51671 24-97): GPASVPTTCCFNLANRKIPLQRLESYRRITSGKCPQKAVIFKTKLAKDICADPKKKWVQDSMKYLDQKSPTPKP
CCL13_HUMAN, sequence (Q99616 17-98): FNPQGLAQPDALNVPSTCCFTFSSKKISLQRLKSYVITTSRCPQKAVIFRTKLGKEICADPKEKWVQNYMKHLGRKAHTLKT
CCL2_HUMAN, sequence (P13500 24-99): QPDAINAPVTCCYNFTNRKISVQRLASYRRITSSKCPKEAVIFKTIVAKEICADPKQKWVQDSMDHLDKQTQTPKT
CCL3L1_HUMAN, sequence (P16619 24-93): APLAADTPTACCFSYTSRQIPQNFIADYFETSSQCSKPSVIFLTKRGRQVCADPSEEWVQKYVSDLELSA
CCL7_HUMAN, sequence (P80098 24-99): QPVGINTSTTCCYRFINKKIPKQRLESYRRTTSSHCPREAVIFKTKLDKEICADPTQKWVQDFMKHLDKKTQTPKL
CXCL12_HUMAN, sequence (P48061 22-93): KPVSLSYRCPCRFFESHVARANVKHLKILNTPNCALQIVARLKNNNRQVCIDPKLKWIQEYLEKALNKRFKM
CCL20_HUMAN, sequence (P78556 27-96): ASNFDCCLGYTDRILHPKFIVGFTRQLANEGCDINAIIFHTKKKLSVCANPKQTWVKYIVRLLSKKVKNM

B1: P1011_AMBTR: tick CKBP, Amblyomma triste (protein)
chain: EKDTPKNIPGCEDAGTTAAPPADNPKHYAVYTDKNGCTFKVIGTWMTKEDHRRLPVSLRRVRASSGRVKLPASCQKICKHSVKKFPEGTPCRLVTRDPIKGKNHIKNGCIRGYCSSGVCVSDNRSISCYVLPNNTELTSPSGSFAE
modifications: Amblyomma triste
- Binding to CCL17_HUMAN, YSD (CCL17_HUMAN): YES (An arbitrary threshold of >3 fold over background mean fluorescence intensity was chosen to describe confirmed re-tests. Where binding was detected data are indicated as “YES”)
- Binding to CCL11_HUMAN, YSD (CCL11_HUMAN [1]): YES (An arbitrary threshold of >3 fold over background mean fluorescence intensity was chosen to describe confirmed re-tests. Where binding was detected data are indicated as “YES”)
- Binding to CCL18_HUMAN, YSD (CCL18_HUMAN [2]): YES (An arbitrary threshold of >3 fold over background mean fluorescence intensity was chosen to describe confirmed re-tests. Where binding was detected data are indicated as “YES”)
- Binding to CCL25_HUMAN, YSD (CCL25_HUMAN): YES (An arbitrary threshold of >3 fold over background mean fluorescence intensity was chosen to describe confirmed re-tests. Where binding was detected data are indicated as “YES”)
- Binding to CCL5_HUMAN, YSD (CCL5_HUMAN [3]): YES (An arbitrary threshold of >3 fold over background mean fluorescence intensity was chosen to describe confirmed re-tests. Where binding was detected data are indicated as “YES”)

B2: P1030_AMBPA: tick CKBP, Amblyomma parvum (protein, listed as Amblyomma parvum)
chain: GPPSIPGNESIPGCGDAGTTTAPEDNPKHYGTLTDKKGCTLPIIGTWMTAVDHQHLQGTRGERRGPTGKVNLPASCRKNCHGRQEILRDGIPCRKVVGNPKGSKKHLKSGCLRGKCLAGQCVNDGRRISCYVPRNITDTEPTPGLLAE
- Binding to CCL17_HUMAN, YSD (CCL17_HUMAN): YES (An arbitrary threshold of >3 fold over background mean fluorescence intensity was chosen to describe confirmed re-tests. Where binding was detected data are indicated as “YES”)
- Binding to CCL11_HUMAN, YSD (CCL11_HUMAN [1]): YES (An arbitrary threshold of >3 fold over background mean fluorescence intensity was chosen to describe confirmed re-tests. Where binding was detected data are indicated as “YES”)
- Binding to CCL3_HUMAN, YSD (CCL3_HUMAN [4]): YES (An arbitrary threshold of >3 fold over background mean fluorescence intensity was chosen to describe confirmed re-tests. Where binding was detected data are indicated as “YES”)
- Binding to CCL8_HUMAN, YSD (CCL8_HUMAN [5]): YES (An arbitrary threshold of >3 fold over background mean fluorescence intensity was chosen to describe confirmed re-tests. Where binding was detected data are indicated as “YES”)
- Binding to CCL20_HUMAN, YSD (CCL20_HUMAN): YES (An arbitrary threshold of >3 fold over background mean fluorescence intensity was chosen to describe confirmed re-tests. Where binding was detected data are indicated as “YES”)
- Binding to CCL5_HUMAN, YSD (CCL5_HUMAN [3]): YES (An arbitrary threshold of >3 fold over background mean fluorescence intensity was chosen to describe confirmed re-tests. Where binding was detected data are indicated as “YES”)
- Binding to CXCL8_HUMAN, YSD (CXCL8_HUMAN): YES (An arbitrary threshold of >3 fold over background mean fluorescence intensity was chosen to describe confirmed re-tests. Where binding was detected data are indicated as “YES”)

B3: P1215_AMBPA: tick CKBP, Amblyomma parvum (protein, listed as Amblyomma parvum)
chain: KTDTKNAAGELPPKVVIPGCEDPATTKAPLPDEPPYYGITIDKDGCQRKVLGSSQRQQRKVQNGRKLDGKKRGRRPVFVDLELTVDCKRKCNGTYSQLPDGENCLVSDGYPYGRWGTIKGGCYQGNCSSGQCHRGEKKVNCYLPKNITNDVPKSLNLAE
- Binding to CCL11_HUMAN, YSD (CCL11_HUMAN [1]): YES (An arbitrary threshold of >3 fold over background mean fluorescence intensity was chosen to describe confirmed re-tests. Where binding was detected data are indicated as “YES”)
- Binding to CCL18_HUMAN, YSD (CCL18_HUMAN [2]): YES (An arbitrary threshold of >3 fold over background mean fluorescence intensity was chosen to describe confirmed re-tests. Where binding was detected data are indicated as “YES”)
- Binding to CXCL12_HUMAN, YSD (CXCL12_HUMAN): YES (An arbitrary threshold of >3 fold over background mean fluorescence intensity was chosen to describe confirmed re-tests. Where binding was detected data are indicated as “YES”)
- Binding to CCL5_HUMAN, YSD (CCL5_HUMAN [3]): YES (An arbitrary threshold of >3 fold over background mean fluorescence intensity was chosen to describe confirmed re-tests. Where binding was detected data are indicated as “YES”)

B4: P698_RHISA: tick CKBP, Rhipicephalus sanguineus (protein, listed as Rhipicephalus sanguineus)
chain: NEDDSSDYYDASPMNCSSMSVNSTMGWLSMNCTMSCNGTTFPLSNSTHCFHSYTNLTVQSRMETMTYNCSVGTCSNGTCVENGTTTTCW
- Binding to CCL8_HUMAN, YSD (CCL8_HUMAN [5]): YES (An arbitrary threshold of >3 fold over background mean fluorescence intensity was chosen to describe confirmed re-tests. Where binding was detected data are indicated as “YES”)
- Binding to CCL5_HUMAN, YSD (CCL5_HUMAN [3]): YES (An arbitrary threshold of >3 fold over background mean fluorescence intensity was chosen to describe confirmed re-tests. Where binding was detected data are indicated as “YES”)

B5: P985_AMBPA: tick CKBP, Amblyomma parvum (protein, listed as Amblyomma parvum)
chain: DEESEELGASTDVDYEELDANCTCPAPALTSTRNNKHYPLGCIYNCSSYNCTIPDGTPCYVLTLGEVKEHLQIGSTVPNCTCGLCRNGTCVSNGTVEECFAVEEIEET
- Kd (CCL2_HUMAN): 17 nM
- Kd (CCL4L1_HUMAN): 21 nM
- Kd (CCL11_HUMAN [6]): 8 nM
- Kd (CCL18_HUMAN [7]): 430 nM
- Kd (CCL7_HUMAN): 61 nM
- Kd (CCL16_HUMAN): 45 nM
- Kd (CCL3_HUMAN [8]): 8.9 nM
- Kd (CCL13_HUMAN): 89 nM
- Kd (CCL8_HUMAN [9]): 6.5 nM
- Kd (CCL1_HUMAN): 8.3 nM
- Kd (CCL4_HUMAN): 46 nM
- Kd (CCL3L1_HUMAN): 7.5 nM
- Kd (CCL5_HUMAN [10]): 3.5 nM
- Kd (CCL24_HUMAN): 41 nM

B6: P1220_IXORI: tick CKBP, Ixodes ricinus (protein, listed as Ixodes ricinus)
chain: GSTPSAMKTEDILKVLGSTSSLENHTDSSHCRYQELLDITKNIENAGFLAINCQRSCPNGKQTMVEGYGCIFKIKHATKRGKVKVKEGSCRKGACVRGSTRPPWRLLVLLGESKEEEFL
- Binding to CCL25_HUMAN, YSD (CCL25_HUMAN): YES (An arbitrary threshold of >3 fold over background mean fluorescence intensity was chosen to describe confirmed re-tests. Where binding was detected data are indicated as “YES”)
